Experimental findings from paper PMC10658506 are described below.

The experiment concerns the target human gp130-Fc (UniProt P40189). Briefly: flow cytometry on yeast-displayed IL-11. To be noted: 100 nM IL-11R added, read off a plot.
Where [1] appears, read: 100 nM gp130-Fc, parent: est. 35000.
Where [2] appears, read: 1000 nM gp130-Fc, parent: est. 40000.

Sequence of human gp130-Fc (P40189 whole entry, looked up, tested part not stated): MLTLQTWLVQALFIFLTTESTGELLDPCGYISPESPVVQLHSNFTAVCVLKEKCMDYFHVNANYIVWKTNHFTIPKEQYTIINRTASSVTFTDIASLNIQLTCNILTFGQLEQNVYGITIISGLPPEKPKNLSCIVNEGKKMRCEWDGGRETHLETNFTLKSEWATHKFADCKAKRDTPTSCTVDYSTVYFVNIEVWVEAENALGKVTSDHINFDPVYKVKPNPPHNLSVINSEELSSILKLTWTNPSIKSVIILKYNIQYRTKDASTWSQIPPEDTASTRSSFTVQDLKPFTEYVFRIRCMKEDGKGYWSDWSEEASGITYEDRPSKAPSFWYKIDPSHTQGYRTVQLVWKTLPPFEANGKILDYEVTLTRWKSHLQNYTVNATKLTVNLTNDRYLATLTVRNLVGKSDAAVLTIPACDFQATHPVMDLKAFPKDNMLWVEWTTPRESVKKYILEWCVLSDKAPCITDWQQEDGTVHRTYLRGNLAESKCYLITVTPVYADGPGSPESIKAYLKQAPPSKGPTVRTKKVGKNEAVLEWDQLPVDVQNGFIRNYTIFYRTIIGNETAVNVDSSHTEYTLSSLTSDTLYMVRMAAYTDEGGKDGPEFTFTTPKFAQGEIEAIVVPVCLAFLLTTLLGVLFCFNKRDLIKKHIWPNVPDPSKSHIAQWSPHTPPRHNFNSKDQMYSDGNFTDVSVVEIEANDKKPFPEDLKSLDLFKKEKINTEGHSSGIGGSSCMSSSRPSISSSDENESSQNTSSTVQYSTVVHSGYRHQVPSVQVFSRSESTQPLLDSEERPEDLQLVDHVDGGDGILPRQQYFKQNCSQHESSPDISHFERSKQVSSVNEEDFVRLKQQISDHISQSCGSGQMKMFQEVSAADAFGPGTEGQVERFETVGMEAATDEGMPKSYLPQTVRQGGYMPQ

For the substance “yeast-displayed IL-11 GIPR precomplexed with soluble human IL-11R (from UniProt Q14626) L24R; W147A”, the response (Normalized Fluorescence) is, setting by setting: under setting [1], 1900; under setting [2], 4500.

In the case of “yeast-displayed IL-11 GIPR precomplexed with soluble human IL-11R (from UniProt Q14626) W147A”, the response (Normalized Fluorescence) turned out to be 4900 (10 nM gp130-Fc, parent: est. 28000); 17000 under setting [1]; 26000 under setting [2].
